Experiments:
[1] = biological target: delta opioid receptor (δ-OR, OPRD1); design: method as in PMID 27744679; conditions: calcium mobilization pathway; read-out: EC50 agonist, delta opioid receptor; cited from earlier work
[2] = biological target: T1, CCR3 (Homo sapiens, UniProt P51677); test: PathHunter β-arrestin assay, positive allosteric modulation (PAM) mode; format: cell-based; conditions: control agonist; read-out: EC50 of positive control ligand
T1 sequence (P51677 1-355): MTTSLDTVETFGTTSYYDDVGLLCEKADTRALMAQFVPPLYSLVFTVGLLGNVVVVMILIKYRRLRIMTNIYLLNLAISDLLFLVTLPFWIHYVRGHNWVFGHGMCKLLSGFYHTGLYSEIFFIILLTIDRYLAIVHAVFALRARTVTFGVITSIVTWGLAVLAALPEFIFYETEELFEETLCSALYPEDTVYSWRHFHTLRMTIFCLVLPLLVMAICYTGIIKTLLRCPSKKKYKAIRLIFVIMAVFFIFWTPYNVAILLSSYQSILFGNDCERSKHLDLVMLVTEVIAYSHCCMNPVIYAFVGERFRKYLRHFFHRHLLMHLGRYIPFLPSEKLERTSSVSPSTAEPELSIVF
Experimental: (§1) Hit validation was performed by subjecting the aaptamine to an agonist, antagonist, and positive allosteric modulation (PAM) secondary screen utilizing thirteen GPCR biosensor assays (Arrestin) against the following targets: ADRA2A, ADRA2C, ADRB2, CCR1, CCR3, CXCR3, CXCR7, DRD2L, DRD2S, DRD4, HTR1E, OPRK1, and SSTR1. The assays were performed at 10-point concentrations using three-fold serial dilutions in duplicate. For all the assay formats, the final assay vehicle concentration was 1%.
(§2) For PAM assays, the cells were preincubated with the sample followed by agonist induction at the EC20 concentration. To the cells, 5 µL of 5X sample was added and incubated for 30 min at 37 °C or room temperature. Following the incubation period, 5 µL of the 6X EC20 agonist prepared in an assay buffer was added to the cells and incubated for 90 or 180 min at 37 °C or room temperature. The percent activity of aaptamine was calculated following this formula: % modulation = 100% × ((mean RLU of test sample − mean RLU of EC20 control)/(mean RLU of MAX control ligand − mean RLU of EC20 control)).

[3] = biological target: T2, CCR1 (Homo sapiens, UniProt P32246); test: PathHunter β-arrestin assay, agonist mode; format: cell-based; conditions: dose-response, agonist mode
T2 sequence (P32246 1-355): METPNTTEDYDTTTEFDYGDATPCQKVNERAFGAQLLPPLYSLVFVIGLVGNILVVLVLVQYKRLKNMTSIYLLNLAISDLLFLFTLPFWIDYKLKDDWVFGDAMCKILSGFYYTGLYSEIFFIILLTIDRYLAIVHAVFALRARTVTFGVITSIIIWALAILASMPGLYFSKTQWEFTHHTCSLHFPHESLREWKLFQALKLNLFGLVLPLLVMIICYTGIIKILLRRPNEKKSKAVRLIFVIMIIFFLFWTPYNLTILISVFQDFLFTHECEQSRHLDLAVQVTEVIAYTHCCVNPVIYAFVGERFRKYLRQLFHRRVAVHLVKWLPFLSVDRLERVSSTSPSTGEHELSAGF
Experimental: Aaptamine (20 µM) was profiled in gpcrMAX panel biosensor assays (in agonist and antagonist modes) against a panel of 168 GPCRs. The assay was performed by DiscoverX Corporation (Fremont, CA) using PathHunter β -arrestin enzyme fragment complementation (EFC) technology, in a similar way to that described elsewhere. The PathHunter cell lines were taken from freezer stocks according to standard procedures. A total of 20 µL of cells were seeded into white 384-well plates and incubated at 37 °C for the appropriate time prior to testing.
For agonist determination, aaptamine was incubated with PathHunter cell lines to induce a response. To increase the concentration, intermediate dilution from 20 µM of aaptamine was performed to generate a 5X sample in an assay buffer. Then, 5 µL of 5X sample was added to the plate with PathHunter cells and incubated for 90 or 180 min at 37 °C or room temperature. The percentage activity of aaptamine was calculated following this formula: % activity = 100% × (mean RLU of test sample − mean RLU of vehicle control)/(mean MAX control ligand − mean RLU of vehicle control).
as §1

[4] = biological target: T3, CXCR3 (Homo sapiens, UniProt P49682); test: PathHunter β-arrestin assay, positive allosteric modulation (PAM) mode; format: cell-based; conditions: control agonist; read-out: EC50 of positive control ligand
T3 sequence (P49682 1-368): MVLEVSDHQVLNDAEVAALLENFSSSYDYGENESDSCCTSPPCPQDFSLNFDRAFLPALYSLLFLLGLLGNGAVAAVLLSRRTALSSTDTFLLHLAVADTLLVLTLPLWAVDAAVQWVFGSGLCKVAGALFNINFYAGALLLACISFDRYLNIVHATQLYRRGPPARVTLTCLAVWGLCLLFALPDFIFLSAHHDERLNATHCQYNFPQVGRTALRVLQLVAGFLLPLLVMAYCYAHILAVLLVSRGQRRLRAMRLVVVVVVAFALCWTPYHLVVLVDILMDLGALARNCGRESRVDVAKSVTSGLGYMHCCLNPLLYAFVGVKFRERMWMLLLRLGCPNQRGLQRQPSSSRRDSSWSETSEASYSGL
Experimental: as §1, §2

Compound: COc1cc2ccnc3c2c(c1O)NC=C3 [9-demethyl aaptamine]
- EC50 [1]: 4.1 µM

Compound: COC1=Cc2ccnc3ccnc(c23)C1=O [demethyl(oxy)-aaptamine]
- EC50 [1]: 2.3 µM

Compound: CCL3: ligand used as positive control for CCR3
- EC50 [2]: 0.003 µM

Compound: CCL13: ligand used as positive control for CCR1
- EC50 [3]: 0.026 µM

Compound: CXCL11: ligand used as positive control for CXCR3
- EC50 [4]: 0.0067 µM
